Data published in patent publication US20100221257A1 (AstraZeneca / MedImmune, published 2010).
Changes are numbered by the printed parent chain. Each block holds one binder with its values, some of them ahead of it.

Key:
[1] = target: T1, human histidine tagged (HIS) IL1RFc fusion protein (human); experiment: HTRF receptor-ligand assay, IgG inhibiting HIS FLAG IL-1Ra binding to cryptate labelled human HIS IL1RFc
T1 construct: Biotinylated or cryptate labelled in some assays; also called human HIS IL1RFc; huIL-1R1-Fc
Procedure: The ability of lead antibodies to inhibit IL-1Ra to IL-1R1 was assessed in a receptor-ligand binding HTRF® (Homogeneous Time-Resolved Fluorescence) assay format for inhibition of HIS FLAG tagged human IL1Ra (In house, E. Coli expressed; HIS FLAG IL-1RA) binding to human histidine tagged (HIS) IL1RFc fusion protein (in house), as described in the Materials and methods section.
A titration of inhibitor was used in order to establish the clone potency as measured by IC₅₀ values in the assay. All dilutions were carried out in assay buffer as for ligand binding assay above. 5 μl of a titration of inhibitor was added to a 384 well low volume assay plate (Costar 3676). This was then followed by addition of 0.4 nM cryptate labelled HIS IL1RFc. Assay plates were then sealed and incubated at room temperature in dark for 1 hour.

[2] = target: T2, human recombinant IL-1R6/IL1 R rp2/Fc (human, UniProt Q9HB29 20-335, limits assumed); experiment: DELFIA epitope competition; no inhibition of biotinylated huIL-1RFc binding to the adsorbed IgG
T2 construct: Bought; also called Human IL1R6Fc; not shown: Fc of the bought fusion protein, not described
T2 sequence (looked up): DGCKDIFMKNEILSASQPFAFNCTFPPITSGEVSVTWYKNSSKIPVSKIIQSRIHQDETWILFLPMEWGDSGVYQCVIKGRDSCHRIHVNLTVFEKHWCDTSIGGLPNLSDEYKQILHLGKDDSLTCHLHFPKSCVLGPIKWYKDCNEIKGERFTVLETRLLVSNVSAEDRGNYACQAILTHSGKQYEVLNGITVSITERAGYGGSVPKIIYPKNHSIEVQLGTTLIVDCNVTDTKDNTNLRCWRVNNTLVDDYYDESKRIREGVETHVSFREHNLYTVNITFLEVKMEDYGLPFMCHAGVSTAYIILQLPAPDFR
Procedure: (§1) Titrations of non biotinylated purified human recombinant IL1sRII (R&D Systems), human recombinant IL-1R6/IL1 R rpt/Fc (R&D Systems), human recombinant IL18R alpha/IL-1 R5/Fc (R&D systems) and recombinant human IL-1 R4 (ST2)/Fc (R&D systems) were tested in each assay to establish the potency for each structurally related family member, as measured by IC₅₀ values in the assay.
(§2) Purified IgG were adsorbed onto 96-well Maxisorp microtitre plates (Nunc) in PBS at a concentration which gave a significant signal when biotinylated human HIS IL1RFc was added at approximately its estimated KD for that particular IgG. Excess IgG was washed away with PBS-Tween (0.1% v/v) and the wells were blocked with non-fat dried milk in PBS (3% w/v) for 1 h. […] Non-biotinylated human HIS IL1RFc was included as a positive control. 25 μl of this dilution series was added to the blocked IgG assay plate.
(§3) 25 μl of 1.4 nM biotinylated human HIS IL1RFc was added to the assay plate. The plate was then sealed and incubated at room temperature for 2 h. Unbound antigen was removed by washing with PBS-Tween (0.1% v/v), while the remaining biotinylated human IL1RFc was detected by streptavidin-Europium3+ conjugate (DELFIA® detection, PerkinElmer). Time-resolved fluorescence was measured at 620 nm on an EnVision plate reader (PerkinElmer). Fluorescence data was plotted as europium counts. IC₅₀ values were determined using GraphPad Prism software by curve fitting using a four-parameter logistic equation (Equation 3).

[3] = target: T3, human recombinant IL1sRII (human, UniProt P27930 14-343); experiment: as above
T3 construct: also called Human IL1sRII
T3 sequence (looked up): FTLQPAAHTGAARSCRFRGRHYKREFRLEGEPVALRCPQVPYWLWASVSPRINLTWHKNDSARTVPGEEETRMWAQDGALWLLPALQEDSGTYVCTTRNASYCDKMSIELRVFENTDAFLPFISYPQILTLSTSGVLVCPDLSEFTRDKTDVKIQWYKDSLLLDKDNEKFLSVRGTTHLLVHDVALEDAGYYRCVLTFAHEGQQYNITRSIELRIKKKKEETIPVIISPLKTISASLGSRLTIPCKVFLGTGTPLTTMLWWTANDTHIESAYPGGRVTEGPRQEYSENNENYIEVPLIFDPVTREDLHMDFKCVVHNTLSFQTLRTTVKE
Procedure: as §1, §2, §3

[4] = target: T4, human recombinant IL18R alpha/IL-1 R5/Fc (human, UniProt Q13478 19-329, limits assumed); experiment: as above
T4 construct: Bought; also called IL18R alpha Fc; not shown: Fc of the bought fusion protein, not described
T4 sequence (looked up): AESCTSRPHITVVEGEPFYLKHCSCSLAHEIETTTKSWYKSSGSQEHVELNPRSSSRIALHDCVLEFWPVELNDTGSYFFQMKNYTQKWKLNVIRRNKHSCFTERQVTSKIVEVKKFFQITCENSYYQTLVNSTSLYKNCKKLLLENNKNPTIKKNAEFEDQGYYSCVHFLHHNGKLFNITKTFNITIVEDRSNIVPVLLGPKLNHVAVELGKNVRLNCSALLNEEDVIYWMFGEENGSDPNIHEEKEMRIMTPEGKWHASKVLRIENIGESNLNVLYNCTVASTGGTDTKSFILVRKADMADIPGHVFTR
Procedure: as §1, §2, §3

[5] = target: T5, human IL-1R1, endogenous on human cells (HeLa cells; whole blood) (human, UniProt P14778 18-569); experiment: cell-based or functional assay
T5 sequence (looked up): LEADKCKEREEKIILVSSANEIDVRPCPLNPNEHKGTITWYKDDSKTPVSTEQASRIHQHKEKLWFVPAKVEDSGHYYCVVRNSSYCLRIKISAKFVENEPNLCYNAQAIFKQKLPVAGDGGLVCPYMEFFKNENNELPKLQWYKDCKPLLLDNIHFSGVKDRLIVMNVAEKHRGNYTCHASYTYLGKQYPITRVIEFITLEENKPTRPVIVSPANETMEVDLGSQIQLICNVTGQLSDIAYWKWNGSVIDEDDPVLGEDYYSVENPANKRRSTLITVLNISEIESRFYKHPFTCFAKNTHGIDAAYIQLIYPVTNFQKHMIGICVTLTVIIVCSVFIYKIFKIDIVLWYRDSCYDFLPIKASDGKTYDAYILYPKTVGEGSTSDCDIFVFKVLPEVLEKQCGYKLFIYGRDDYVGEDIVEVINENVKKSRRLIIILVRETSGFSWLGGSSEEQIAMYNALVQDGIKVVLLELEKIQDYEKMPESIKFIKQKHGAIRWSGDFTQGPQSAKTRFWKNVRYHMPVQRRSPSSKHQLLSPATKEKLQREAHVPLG

IC50 [1]: 0.181 nM
binding result [2]: no binding
binding result [3]: no binding
binding result [4]: no binding
IC50, inhibition of IL-1 alpha induced IL-8 release in HeLa cells (GL IgG2) [5]: 0.0031 nM
IC50, inhibition of IL-1 beta induced IL-8 release in HeLa cells (GL IgG2) [5]: 0.0119 nM
B1: Antibody 6GL IgG2 (antibody, V domains shown)
VH: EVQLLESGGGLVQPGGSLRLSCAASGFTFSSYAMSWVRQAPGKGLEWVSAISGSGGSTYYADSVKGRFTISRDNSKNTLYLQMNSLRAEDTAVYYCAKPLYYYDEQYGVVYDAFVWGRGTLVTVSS
VL: QSVLTQPPSVSGAPGQRVTISCTGSSSNIGAGYDVHWYQQLPGTAPKLLIYGDTHRPSGVPDRFSGSKSGTSASLAITGLQAEDEADYYCQSYDTVRLHHVFGGGTKLTVL
notes: Germlined IgG2, lambda light chain; also called Antibody 6 IgG2; 28PL GL

IC50 [1]: 0.323 nM
binding result [2]: no binding
binding result [3]: no binding
binding result [4]: no binding
IC50, inhibition of IL-1 alpha induced IL-8 release in HeLa cells (GL IgG2) [5]: 0.0138 nM
IC50, inhibition of IL-1 beta induced IL-8 release in HeLa cells (GL IgG2) [5]: 0.0242 nM
B2: Antibody 10GL IgG2 (antibody, V domains shown)
VH: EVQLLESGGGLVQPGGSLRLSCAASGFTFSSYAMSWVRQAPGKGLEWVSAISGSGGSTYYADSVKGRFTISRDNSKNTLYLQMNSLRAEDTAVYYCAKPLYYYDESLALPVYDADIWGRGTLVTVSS
VL: B1 VL with V96R, R97A, L98D, H99D, H100A, V101H
notes: Germlined IgG2, lambda light chain

IC50 [1]: 0.363 nM
binding result [2]: no binding
binding result [3]: no binding
binding result [4]: no binding
IC50, inhibition of IL-1 alpha induced IL-8 release in HeLa cells (GL IgG2) [5]: 0.197 nM
IC50, inhibition of IL-1 beta induced IL-8 release in HeLa cells (GL IgG2) [5]: 0.0419 nM
B3: Antibody 8GL IgG2 (antibody, V domains shown)
VH: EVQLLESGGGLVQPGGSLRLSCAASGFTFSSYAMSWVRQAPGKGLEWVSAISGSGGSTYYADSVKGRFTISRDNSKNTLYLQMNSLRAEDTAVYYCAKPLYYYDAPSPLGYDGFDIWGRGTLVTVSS
VL: B1 VL with V96H, R97L, L98V, H99A
notes: as for B2
